Five molecules from US20250277048A1 (Regeneron, published 2025) can be followed below.

What is called Kd is the constant that tells how readily two partners part at equilibrium. What is called koff is the rate constant with which the complex falls apart. For orientation: kon means the rate constant with which the complex forms. A word on the IC50: it is the concentration that inhibits the measured activity by half.

The target of test [1] is T1, human CD40 extracellular domain expressed with a C-terminal myc-myc-hexahistidine tag (human).
T1 construct: also called hCD40-MMH; hCD40-mmH
Briefly: SPR Biacore 4000, mAb captured, 25C. On the procedure: (§1) The equilibrium dissociation constants (KD) for anti-CD40 bivalent and bispecific monoclonal antibodies (mAbs) were determined using a real-time surface plasmon resonance (SPR)-based Biacore 4000 biosensor. All binding studies were performed in 10 mM HEPES, 150 mM NaCl, 3 mM EDTA, and 0.05% v/v surfactant Tween-20, pH 7.4 (HBS-ET) running buffer at 25° C. and 37° C. The Biacore CM5 sensor surface was first derivatized by amine coupling with a monoclonal mouse anti-human Fc antibody (REGN2567) to capture anti-CD40 bivalent parental and anti-CD40×CD40 bispecific antibodies. Different concentrations of CD40 reagents, human CD40 extracellular domain expressed with a C-terminal myc-myc-hexahistidine tag (SEQ ID NO: 1114) (“hCD40-MMH”; REGN3094; SEQ ID NO: 53), monkey CD40 extracellular domain expressed with a C-terminal myc-myc-hexahistidine tag (SEQ ID NO: 1114) (“mfCD40-MMH”; REGN3097; SEQ ID NO: 54), and mouse CD40 extracellular domain expressed with a C-terminal myc-myc-hexahistidine tag (SEQ ID NO: 1114) (“mCD40-MMH”; REGN3098; SEQ ID NO: 55), at concentrations ranging from 3.7 nM to 100 nM or 3.3 nM to 90 nM in a series of 3-fold dilutions prepared in HBS-ET running buffer were injected at a flow rate of 30 μL/min for 4 minutes or 50 μL/min for 5 minutes. The dissociation of different CD40 reagents bound to anti-CD40 bivalent parental and anti-CD40×CD40 bispecific antibodies was monitored for 10 minutes in HBS-ET running buffer. At the end of each cycle, the anti-CD40 bivalent parental and anti-CD40×CD40 bispecific antibodies capture surface was regenerated using a 12 sec injection of 20 mM H₃PO₄.
(§2) The association rate (ka) and dissociation rate (kd) were determined by fitting the real-time binding sensorgrams to a 1:1 binding model with mass transport limitation using Scrubber 2.0c curve-fitting software. Binding dissociation equilibrium constant (KD) and dissociative half-life (t_{1/2}) were calculated from the kinetic rates as: KD(M)=kd/kₐ, and t_{1/2} (min)=[ln(2)/(60*kd)].
On the technique in general: Surface plasmon resonance follows binding to a sensor surface in real time, without labels.

In test [2] the target is T2, monkey CD40 extracellular domain expressed with a C-terminal myc-myc-hexahistidine tag (monkey).
T2 construct: also called mfCD40-MMH; REGN3097
T2 chain: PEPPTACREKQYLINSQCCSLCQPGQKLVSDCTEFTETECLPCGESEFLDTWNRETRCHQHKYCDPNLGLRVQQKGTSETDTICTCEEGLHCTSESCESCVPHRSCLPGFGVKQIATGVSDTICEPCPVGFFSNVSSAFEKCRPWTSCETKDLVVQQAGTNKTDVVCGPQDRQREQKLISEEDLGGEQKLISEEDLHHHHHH
Kind of test: SPR Biacore 4000, mAb captured, 25C. On the procedure: as §1, §2

For test [3], the target named is T3, mouse CD40 extracellular domain expressed with a C-terminal myc-myc-hexahistidine tag (mouse).
T3 construct: also called mCD40-MMH; REGN3098
T3 chain: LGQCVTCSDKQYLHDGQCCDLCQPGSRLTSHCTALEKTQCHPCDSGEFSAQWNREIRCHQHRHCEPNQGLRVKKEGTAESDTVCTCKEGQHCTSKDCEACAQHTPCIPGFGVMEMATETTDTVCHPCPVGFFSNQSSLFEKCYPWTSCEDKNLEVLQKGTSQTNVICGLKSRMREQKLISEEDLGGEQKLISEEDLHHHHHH
Kind of test: SPR Biacore 4000, mAb captured, 25C. On the procedure:
as §1, §2

The target of test [4] is T1, human CD40 extracellular domain …. Briefly: ELISA blocking of 40 nM hCD40-mmH binding to 9His-hCD40L. In outline: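 Antibodies (977 pM to 1 μM in PBS+0.5% BSA) were pre-mixed 1 h with 40 nM hCD40-mmH (P20-R193, near its binding EC₅₀), then transferred to plates coated overnight at 4° C with 5 μg/mL 9His-hCD40L. After 1 h at room temperature, bound hCD40-mmH was detected with HRP anti-c-Myc and TMB, read at OD₄₅₀.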
(An ELISA detects its analyte on a solid surface through an enzyme-linked reagent.)

B1: 21520P2 (antibody, human IgG4 S228P, kappa, V domains shown)
VH: EVQLVESGGGLVQPGGSLRLSCAASGFTFGSYGMAWVRQAPGKGLEWVSAISGSGDYTNYADSVKRRFTISRDNSKNTLYLQMSSLRAEDTAVYYCAKEKTGTTGYLYSGMDVWGQGTTVTVSS
VL: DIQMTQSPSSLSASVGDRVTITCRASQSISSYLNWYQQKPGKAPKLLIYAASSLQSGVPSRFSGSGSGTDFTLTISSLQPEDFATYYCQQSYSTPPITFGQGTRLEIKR
notes: parental bivalent anti-CD40 mAb; common light chain; also called H4sH21520P2
Take B1: in test [1], the “100 nM Ag Bound” value was found to be 76.6 RU, the Kd is 25.1 nM, the koff was determined as 0.0223 s⁻¹ and the kon stood at 885000 M⁻¹ s⁻¹. This molecule displayed a t1/2 in test [1] of 0.5 min. In test [2], the “100 nM Ag Bound” value is 10.1 RU, binding was put at a Kd of 67.7 nM, the koff stood at 0.203 s⁻¹ and the kon is 3e+06 M⁻¹ s⁻¹. In test [2], this molecule showed a t1/2 of 0.1 min. In addition, in test [3], the “100 nM Ag Bound” value was -0.5 RU. For the same molecule, in test [4], the “% Blocking at 1 uM mAb” value came to 94% and the IC50 is 62 nM.

B2: 21519P2 (antibody, human IgG4 S228P, kappa, V domains shown)
VH: QLQLQESGPGLVRPSETLSLTCSVSGASMNTNNYYWGWIRQPPGKGLEWIGSGYYNGNTYYNPSLKSRVTISVDTSKNQFSLKLNSVTAADTAVYYCARQTPPRIIGSPNIWGQGTMVTVSS
VL: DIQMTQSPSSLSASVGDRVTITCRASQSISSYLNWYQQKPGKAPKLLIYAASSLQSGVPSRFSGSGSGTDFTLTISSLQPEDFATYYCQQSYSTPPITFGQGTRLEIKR
notes: parental bivalent anti-CD40 mAb; common light chain; also called H4sH21519P2
For B2, in test [1], the “100 nM Ag Bound” value came out at 99 RU, the Kd is 8.82 nM, the koff was found to be 0.00339 s⁻¹ and the t1/2 was 3.4 min. Moreover, in test [2], the “100 nM Ag Bound” value was determined as 10.3 RU, the Kd is 205 nM, the koff was determined as 0.181 s⁻¹ and the kon was 886000 M⁻¹ s⁻¹. The same molecule yielded a t1/2 in test [2] of 0.1 min. Further, in test [3], the “100 nM Ag Bound” value was determined as 0.4 RU and the binding result is on record as “no binding (tested: 100 nM)”. Further, in test [4], the “% Blocking at 1 uM mAb” value was found to be 94% and the IC50 amounted to 61 nM.

B3: 30027P2 (antibody, human IgG4 S228P, kappa, V domains shown)
VH: EVQLVESGGGLVQPGGSLRLSCAASGFTFSSYAMNWVRQAPGKGLEWVSIISGTIGKTYYADSVKGRFTISRDNSKNTLYLQMNSLRGEDTAVYYCAKDTERDITGSPFDYWGQGTLVTVSS
VL: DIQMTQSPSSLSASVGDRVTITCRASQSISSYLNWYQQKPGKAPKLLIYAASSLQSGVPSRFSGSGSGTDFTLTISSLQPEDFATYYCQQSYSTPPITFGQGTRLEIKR
notes: parental bivalent anti-CD40 mAb; common light chain; also called H4sH30027P2
Consider B3, for which, in test [1], the “100 nM Ag Bound” value was found to be 62 RU, the Kd stood at 1.83 nM, the koff turned out to be 0.000998 s⁻¹ and the on-rate constant (kon) amounted to 546000 M⁻¹ s⁻¹. The t1/2 in test [1] came out at 11.6 min. In test [2], the “100 nM Ag Bound” value was 63.1 RU, the Kd was 0.901 nM, the koff amounted to 0.00102 s⁻¹ and the kon was found to be 1.14e+06 M⁻¹ s⁻¹. In test [2], this molecule returned a t1/2 of 11.3 min. Moreover, in test [3], the “100 nM Ag Bound” value came out at 0.2 RU and the binding result was “no binding (tested: 100 nM)”. Besides, in test [4], the “% Blocking at 1 uM mAb” value was 10%.

B4: REGN16431 (bispecific antibody, human IgG4 S228P, kappa)
heavy 1: QLQLQESGPGLVRPSETLSLTCSVSGASMNTNNYYWGWIRQPPGKGLEWIGSGYYNGNTYYNPSLKSRVTISVDTSKNQFSLKLNSVTAADTAVYYCARQTPPRIIGSPNIWGQGTMVTVSSASTKGPSVFPLAPCSRSTSESTAALGCLVKDYFPEPVTVSWNSGALTSGVHTFPAVLQSSGLYSLSSVVTVPSSSLGTKTYTCNVDHKPSNTKVDKRVESKYGPPCPPCPAPPVAGPSVFLFPPKPKDTLMISRTPEVTCVVVDVSQEDPEVQFNWYVDGVEVHNAKTKPREEQFNSTYRVVSVLTVLHQDWLNGKEYKCKVSNKGLPSSIEKTISKAKGQPREPQVYTLPPSQEEMTKNQVSLTCLVKGFYPSDIAVEWESNGQPENNYKTTPPVLDSDGSFFLYSRLTVDKSRWQEGNVFSCSVMHEALHNHYTQKSLSLSLGK
heavy 2: EVQLVESGGGLVQPGGSLRLSCAASGFTFGSYGMAWVRQAPGKGLEWVSAISGSGDYTNYADSVKRRFTISRDNSKNTLYLQMSSLRAEDTAVYYCAKEKTGTTGYLYSGMDVWGQGTTVTVSSASTKGPSVFPLAPCSRSTSESTAALGCLVKDYFPEPVTVSWNSGALTSGVHTFPAVLQSSGLYSLSSVVTVPSSSLGTKTYTCNVDHKPSNTKVDKRVESKYGPPCPPCPAPPVAGPSVFLFPPKPKDTLMISRTPEVTCVVVDVSQEDPEVQFNWYVDGVEVHNAKTKPREEQFNSTYRVVSVLTVLHQDWLNGKEYKCKVSNKGLPSSIEKTISKAKGQPREPQVYTLPPSQEEMTKNQVSLTCLVKGFYPSDIAVEWESNGQPENNYKTTPPVLDSDGSFFLYSRLTVDKSRWQEGNVFSCSVMHEALHNRFTQKSLSLSPGK
light: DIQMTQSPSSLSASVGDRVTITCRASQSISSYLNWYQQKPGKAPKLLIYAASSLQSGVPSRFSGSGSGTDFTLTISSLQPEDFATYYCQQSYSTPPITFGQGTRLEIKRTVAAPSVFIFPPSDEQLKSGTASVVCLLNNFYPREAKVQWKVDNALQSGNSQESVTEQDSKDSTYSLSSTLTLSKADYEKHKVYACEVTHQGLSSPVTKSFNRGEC
notes: D1 arm from 21519P2, D2 arm from 21520P2, common light chain; also called CD40xCD40 (21519 x 21520)
Take B4: in test [1], the “100 nM Ag Bound” value was 61.2 RU, the Kd is 0.101 nM, the koff amounted to 0.000149 s⁻¹ and the kon amounted to 1.47e+06 M⁻¹ s⁻¹. In addition, the t1/2 in test [1] is 77.5 min. Further, in test [4], the “% Blocking at 1 uM mAb” value turned out to be 93% and the IC50 was found to be 33 nM.

B5: REGN16432 (bispecific antibody, human IgG4 S228P, kappa)
heavy 1: EVQLVESGGGLVQPGGSLRLSCAASGFTFSSYAMNWVRQAPGKGLEWVSIISGTIGKTYYADSVKGRFTISRDNSKNTLYLQMNSLRGEDTAVYYCAKDTERDITGSPFDYWGQGTLVTVSSASTKGPSVFPLAPCSRSTSESTAALGCLVKDYFPEPVTVSWNSGALTSGVHTFPAVLQSSGLYSLSSVVTVPSSSLGTKTYTCNVDHKPSNTKVDKRVESKYGPPCPPCPAPPVAGPSVFLFPPKPKDTLMISRTPEVTCVVVDVSQEDPEVQFNWYVDGVEVHNAKTKPREEQFNSTYRVVSVLTVLHQDWLNGKEYKCKVSNKGLPSSIEKTISKAKGQPREPQVYTLPPSQEEMTKNQVSLTCLVKGFYPSDIAVEWESNGQPENNYKTTPPVLDSDGSFFLYSRLTVDKSRWQEGNVFSCSVMHEALHNHYTQKSLSLSLGK
heavy 2: EVQLVESGGGLVQPGGSLRLSCAASGFTFGSYGMAWVRQAPGKGLEWVSAISGSGDYTNYADSVKRRFTISRDNSKNTLYLQMSSLRAEDTAVYYCAKEKTGTTGYLYSGMDVWGQGTTVTVSSASTKGPSVFPLAPCSRSTSESTAALGCLVKDYFPEPVTVSWNSGALTSGVHTFPAVLQSSGLYSLSSVVTVPSSSLGTKTYTCNVDHKPSNTKVDKRVESKYGPPCPPCPAPPVAGPSVFLFPPKPKDTLMISRTPEVTCVVVDVSQEDPEVQFNWYVDGVEVHNAKTKPREEQFNSTYRVVSVLTVLHQDWLNGKEYKCKVSNKGLPSSIEKTISKAKGQPREPQVYTLPPSQEEMTKNQVSLTCLVKGFYPSDIAVEWESNGQPENNYKTTPPVLDSDGSFFLYSRLTVDKSRWQEGNVFSCSVMHEALHNRFTQKSLSLSPGK
light: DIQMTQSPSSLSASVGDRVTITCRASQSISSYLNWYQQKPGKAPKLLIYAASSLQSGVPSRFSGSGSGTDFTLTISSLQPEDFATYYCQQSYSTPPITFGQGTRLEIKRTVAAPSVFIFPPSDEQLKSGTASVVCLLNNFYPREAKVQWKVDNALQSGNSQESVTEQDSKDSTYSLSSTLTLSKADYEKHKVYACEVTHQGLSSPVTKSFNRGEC
notes: D1 arm from 30027P2, D2 arm from 21520P2, common light chain; also called CD40xCD40 (30027 x 21520)
For B5, in test [1], the “100 nM Ag Bound” value was determined as 56.6 RU, the Kd is 0.163 nM, the koff was 0.000125 s⁻¹ and the kon was 769000 M⁻¹ s⁻¹. The same molecule had a t1/2 in test [1] of 92.3 min. Besides, in test [4], the “% Blocking at 1 uM mAb” value came to 95% and the IC50 is 32 nM.
